Measured values as given in publication PMC6234840 (Nature, 2018).

Target: GST-eIF3h (human, UniProt O15372 1-352)
Experiment: pull-down

Sequence of GST-eIF3h (O15372 whole entry): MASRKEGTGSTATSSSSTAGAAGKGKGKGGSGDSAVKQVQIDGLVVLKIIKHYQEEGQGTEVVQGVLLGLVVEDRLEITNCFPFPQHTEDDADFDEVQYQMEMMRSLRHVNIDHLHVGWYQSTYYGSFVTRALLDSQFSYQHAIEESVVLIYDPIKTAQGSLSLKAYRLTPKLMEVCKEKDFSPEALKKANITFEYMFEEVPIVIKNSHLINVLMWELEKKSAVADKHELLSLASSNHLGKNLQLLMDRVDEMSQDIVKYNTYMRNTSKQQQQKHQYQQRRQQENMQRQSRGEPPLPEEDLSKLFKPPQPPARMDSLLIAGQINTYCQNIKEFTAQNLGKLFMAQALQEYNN

B1: His-METTL3 1-200 amino acid fragment (domain or fragment)
chain: MSDTWSSIQAHKKQLDSLRERLQRRRKQDSGHLDLRNPEAALSPTFRSDSPVPTAPTSGGPKPSTASAVPELATDPELEKKLLHHLSDLALTLPTDAVSICLAISTPDAPATQDGVESLLQKFAAQELIEVKRGLLQDDAHPTLVTYADHSKLSAMMGAVAEKKGPGEVAGTVTGQKRRAEQDSTTVAAFASSLVSGLNS
binding result: binds
